Results published in patent US20240383999A1 (University of Texas, published 2024).
Residue numbers refer to the chain shown, from its start.

T1: Human recombinant CD5L protein (Sino Biological, Catalog Number 10791-H08H) (human, UniProt O43866 20-347)
T1 construct: Bought protein; also called human CD5L; CD5L-His; not shown: 6xHIS-tag
T1 sequence (looked up): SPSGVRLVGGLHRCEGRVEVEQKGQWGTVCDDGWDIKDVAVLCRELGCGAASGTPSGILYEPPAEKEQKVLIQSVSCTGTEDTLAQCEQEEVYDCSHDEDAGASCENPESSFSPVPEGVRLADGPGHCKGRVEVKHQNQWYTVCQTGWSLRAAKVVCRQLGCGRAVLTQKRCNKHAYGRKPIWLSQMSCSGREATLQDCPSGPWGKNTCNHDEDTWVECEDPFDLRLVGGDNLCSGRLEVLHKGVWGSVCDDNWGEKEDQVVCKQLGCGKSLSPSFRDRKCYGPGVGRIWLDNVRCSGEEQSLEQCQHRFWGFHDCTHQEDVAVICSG

B1: CD5L-35Hu-1 (antibody, V domains shown)
VH: QVQLVESGGGVVQPGRSLRLSCAASGIDLSDYYMTWVRQAPGKGLEYIGIIYASGNAYFASWAKGRFTISRDSSTNTLFLQMNSLRAEDTAVYYCARNIGGSSNLWGQGTLVTVSS
VL: AIQLTQSPSSLSASVGDRVTITCQASERIYNNLAWYQQKPGKAPKLLFYSASTLASGVPSRFSGSGSGTDFTLTISSLQPEDFATYYCQCTGYGTTYGLVFGGGTKVEIK
notes: also called humanized CD5L-35Hu mAb (CD5L-35Hu-H1 + CD5L-35Hu-K1)
B2: CD5L-35Hu-2 (antibody, V domains shown)
VH: B1 VH
VL: B1 VL with A1E, I2L, S7T, T22K
notes: also called humanized CD5L-35Hu mAb (CD5L-35Hu-H1 + CD5L-35Hu-K2)
B3: CD5L-35Hu-3 (antibody, V domains shown)
VH: B1 VH with S73N, L78V
VL: B1 VL
notes: also called humanized CD5L-35Hu mAb (CD5L-35Hu-H2 + CD5L-35Hu-K1)
B4: CD5L-35Hu-4 (antibody, V domains shown)
VH: B1 VH with S73N, L78V
VL: B1 VL with A1E, I2L, S7T, T22K
notes: also called humanized CD5L-35Hu mAb (CD5L-35Hu-H2 + CD5L-35Hu-K2)
B5: R-18 (antibody, V domains shown)
VH: QSVKESGGRLVTPGTPLTLTCTVSGFSLSNYAMSWVRQAPGKGLEWIGIIVTSGSTYYASWAKGRFTISKTSTTVDLKMTSLTAADTATYFCARHAYSIGSSLWGQGTLVTISS
VL: ELDLTQTPPSASEPVGGTVTIKCQASESISVRLAWYQQKPGQPPKLLIYKASNLPSGVPSRFKGSGSGTEFTLTISDLECDDAATYYCRNYYDISNNGAGFGGGTEVEIK
B6: R-34 (antibody, V domains shown)
VH: QSVKESGGRLVTPGTPLTLTCTVSGFSLSSSGMSWVRQAPGKGLEWIGLTFPSGSASYASWAKGRFTVSRTSTTVDLNLTSPTTEDTATYFCAHVGATTGRDFWGQGTLVTVSS
VL: ELVMTQTASSVSAAVGGTVTISCQSSQNIYNNRWSWYQQKPGQPPKLLIYQASTLASGVPSRFKGSGSGTQFTLTISGVQCDDAATYYCAGGYSGTIFTFGGGTELEIK
B7: R-35 (antibody, V domains shown)
VH: AAVKESGGRLVTPGTPLTLTCTVSGIDLSDYYMTWVRQAPGKGLEYIGIIYASGNAYFASWAKGRFTISRTSSTTVDLNVASPTTEDTATYFCARNIGGSSNLWGQGTLVTVSS
VL: ELDMTQTPASVSEPVGGTVTIKCQASERIYNNLAWYQQKPGQPPKLLFYSASTLASGVPSRFKGSGSGTEFTLTISDLECADAAIYYCQCTGYGTTYGLVFGGGTEVEI
notes: also called anti-CD5L antibody R-35; CD5L antibody (R-35)
B8: R-3 (antibody, V domains shown)
VH: QSLKESGGRLVKPDETLTITCTASGIDLTSGTVGWFRQAPGKGLEWIGIIRGSGSTYYATWAKGRFTISKTSTTVDLKLTSPTTEDTATYLCARAFPGYNTFFNFWGQGTLVTISS
VL: ELDLTQTPSSVEAAVGGTVTIKCQASESIGNALAWYQQKPGQPPKLLIWKASNLESGVPPRFKGSGSGTEFTLTISDLECADAATYYCQRYYFNGVSVEIVFGGGTEVVVKG
B9: R-40 (antibody, V domains shown)
VH: QSVKESGGRLVKPDETLTITCTVSGIDLSRYSIQWVRQAPGGGLQWIGVMSIGSSAYYANWAKGRFTISKTSSTTVDLTMTSLTAADTATYFCARSNLYRGAFDPWGPGTLVTISS
VL: ELVMTQTPASVEAAVGGTVTIKCQSSESVYKNNYLSWYQLKPGQPPKLLFYSASTLASRVPSRFSGSGSGTQFTLTISDLECDDAATYYCAGYYGSSSVDRYTFGGGTEVEIK
B10: R-45 (antibody, V domains shown)
VH: QSVKESGGRLVTPGTPLTLTCTVSGFSINDFHMCWVRQAPGKGLEYIGMIGTGGSAYYATWTKGRFTISRTSTTVDLKITSPTTEDTATYFCARRDWSDGGYSLLWGQGTLVTVSS
VL: ELDLTQTPASVSEPVGGTVTIKCQASQSIRTYLNWYQQKPGQPPKLLIYSASTLASGIPSRFKGSGSGTQFTLTISDLECADAATYYCQQGYYWSDVENTFGGGTEVEIN
B11: H-447 (antibody, V domains shown)
VH: EVQLVQSGGGLVQPGGSLRLSCAASGFTVSSNYMSWVRQAPGKGLEWVSVIYSGGSTYYADSVKGRFTISRHNSKNTLYLQMNSLRAEDTAVYYCARESAVAGWGMDVWGKGTTVTVSS
VL: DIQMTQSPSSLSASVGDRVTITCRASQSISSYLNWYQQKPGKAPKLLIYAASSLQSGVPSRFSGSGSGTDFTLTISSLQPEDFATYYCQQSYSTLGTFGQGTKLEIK
B12: R-13 (antibody, V domains shown)
VH: QSLEESGGRLVTPGTPLTLTCTVSGFSLSSYPMSWVRQAPGKGLEWIGIITSGGSIFYATWANGRFTISKTSTTVDLKITSPTTEDTATYFCARGYSSGTMMSSNLWGQGTLVTVSS
VL: ELVLTQTPASVSEPVGGTVTIKCQASESISTYLSWYQQKPGQRPKLLIYRASTLESGVPSRFKGSGSGTEYTLTISGVQCADAATYYCQQGYTYKNVDNAFGGGTEVVVK
B13: R-4 (antibody, V domains shown)
VH: QSVEESGGRLVTPGTPLTLTCTASGFSLSSYYMTWVRQAPGKGLEYIGIISDRGSTYYASWAKGRFTIAKTSSTTVDLKLTSLTTEDTATYFCYRGVDGSGGYAAGDLWGQGTLVTISS
VL: ELVLTQTPASVEAAVGGTVTIKCQASEDIYSYFAWYQQKPGQRPRLLIYEASKVASGVPSRFKGGGSGTQFTLTISDLECADAATYYCQNNFYMIGDDYGGTFGGGTEVEIK
B14: R-5 (antibody, V domains shown)
VH: QSVKESGGRLVTPGTPLTLTCTVSGFSLSSYAMSWVRQAPGKGLEWIGVIDVTGRTYYASWAKGRFTISKTSTTVDLKITSPTTEDTATYFCGRDSYLDYGDPNGLDPWGPGTLVTISS
VL: ELVMTQTPASVEAAVGGTVTIKCQASQSIGSNLAWYQQKPGQPPKLLIYTASNLAPGVSSRFKGSRSGTESTLIISDLECADAATYYCQCTYYGTSYMELGAFGGGTELEIK
B15: R-6 (antibody, V domains shown)
VH: QSLEESGGRLVTPGTPLTLTCTVSTIDVSKYAVIWVRQAPGKGLEYIGIISSSGSTYYASWAKGRFTISKTSSTTVDLKMTSPTAEDTATYFCARGGNGVAFKLWGQGTLVTISS
VL: ELDMTQTPASVEAAVGGTVTINCQASESINDRLAWYQLKPGQPPKLLIYETSQVESGVPSRFSGSGSGTQFTLTISDLECADAATYYCQSHDYISSSGMPFGGGTEVVVK
B16: R-9 (antibody, V domains shown)
VH: QSVKESGGRLVTPGTPLTLTCTVSGFYLSTHGMTWVRQAPGKGLEYIGVIVTSGNTYYATWATGRFTISKTSTTVDLKITSPTTEDTATYFCARPGYKSVPLWGQGTLVTISS
VL: ELDLTQTPASVSAAVGGTVTINCQASEDIYSGLTWYQQKPGQPPKLLIYRASTLASGVPPRFKGSGSGTEFTLTISDLECDDAATYYCQNNYGSSSNNYVFAFGGGTEVEIK
B17: R-10 (antibody, V domains shown)
VH: QSVKESGGRLVTPGTPLTLTCTLSGIDLSSYAMGWVRQAPGKGLEYIGIIGASGTTYYANWAKGRFTISRTSTTVDLKITSPTTEDTATYFCARAGYAGTGYPTRLDLWGQGTLVTISS
VL: ELDMTQTPASVEAAVGGTVTIKCQASQSISSSYLAWYQQKPGQPPKLLIYKASTLESGVPSRFSGSGSGTEFTLTISGVQCDDAATYYCLGGYFSFSNYDYGFGGGTEVEIK
B18: R-11 (antibody, V domains shown)
VH: QSVKESGGDLVKPGASLTLTCTASGFDFSSNTMCWVRQAPGKGLEYIGYISYSGATHYASWAKGRFTISKTLSTTVTLQMTSLTDADTATYFCARDRGYVDGSYYGDFNLWGPGTLVTVSS
VL: ELVMTQTPSSASEPVGGTVTIKCQASQSIASRLAWFQQKPGQPPKLLIYRASTLESGVSSRFKGSGFGTEFTLTISDLECADAATYYCQSYYGSGYGKTFGGGTDVVVK

Molecular target: T1, Human recombinant CD5L protein (Sino …)
Assay: BLI (Octet RED96), antibody on Protein A biosensors, CD5L-His in solution, global fit
Experimental: Kinetic binding parameters (KD, kon, and koff) in (Table 11) were determined using Octet RED96 instrument and binding curves are shown in FIG. 17. […] KDs are calculated using Octet software with global fitting model.

Binder | Kd [nM] | koff [s⁻¹] | kon [M⁻¹ s⁻¹]
B1 | < 0.001 | < 1e-07 | 146000
B2 | < 0.001 | < 1e-07 | 125000
B3 | < 0.001 | < 1e-07 | 119000
B4 | < 0.001 | < 1e-07 | 106000

Molecular target: T1, Human recombinant CD5L protein (Sino …)
Assay: BLI (Octet RED96), antibody on protein A biosensors, CD5L 0.1-200 nM in solution, 1:1 fit
Experimental: All experiments were performed with shaking at 1,000 rpm. Background wavelength shifts were measured from reference biosensors that were loaded only with antibody. ForteBio's data analysis software was used to fit the data to a 1:1 binding model to extract an association rate and dissociation rate.

Binder | Kd [nM]
B5 | 1.56
B6 | 1.35
B7 | 0.78
B8 | 2.18
B9 | 1.74
B10 | 2.97
B11 | 28.7
B12 | 1.72

Molecular target: T1, Human recombinant CD5L protein (Sino …)
Assay: titration ELISA, human CD5L coated on plate
Experimental: FIG. 11. […] Bound antibody was detected using a secondary antibody against rabbit IgG conjugated with HRP and TMB substrate for detection of A450 nm. EC₅₀ was estimated using GraphPad software by applying a 4-parameter fitting to calculate binding affinity of the antibodies.
Binding constants (EC₅₀) of a panel of monoclonal antibodies were estimated by titration ELISA, and the data were analyzed using the 4-parameter curve fitting with GraphPad Prism program (Table 6).

Binder | EC50 [µg/mL]
B5 | 0.19
B6 | 0.22
B7 | 0.169
B8 | 0.183
B9 | 0.21
B10 | 0.0788
B11 | 0.25
B13 | 0.0713
B12 | 0.116
B14 | 0.148
B15 | 0.187
B16 | 0.136
B17 | 0.307
B18 | 0.0474
